# Tests used:
# [1] = biological target: SepM_control (Streptococcus mutans); experiment: MST; SepM (50 nM) labelled on its His-tag with RED-tris-NTA; CSP-21 in a 16-point serial dilution from 100 µM; PBS pH 7.5; 37 °C; Monolith NT.115, triplicate
# [2] = biological target: SepM_G178D (Streptococcus mutans); experiment: as above
# [3] = biological target: SepM_D221N (Streptococcus mutans); experiment: as above
# [4] = biological target: SepM_control (Streptococcus mutans); experiment: MST; SepM (50 nM) labelled on its His-tag with RED-tris-NTA; CSP-21 in a 16-point serial dilution from 100 µM; PBS pH 5.5; 37 °C; Monolith NT.115, triplicate
# [5] = biological target: SepM_G178D (Streptococcus mutans); experiment: as above
# [6] = biological target: SepM_D221N (Streptococcus mutans); experiment: as above
# [7] = biological target: SepM_control (Streptococcus mutans); experiment: MST; SepM (50 nM) labelled on its His-tag with RED-tris-NTA; CSP-21 in a 16-point serial dilution from 100 µM; PBS pH 7.5; 25 °C; Monolith NT.115, triplicate
# [8] = biological target: SepM_G178D (Streptococcus mutans); experiment: as above
# [9] = biological target: SepM_D221N (Streptococcus mutans); experiment: as above
# [10] = biological target: SepM_control (Streptococcus mutans); experiment: MST; SepM (50 nM) labelled on its His-tag with RED-tris-NTA; CSP-21 in a 16-point serial dilution from 100 µM; PBS pH 5.5; 25 °C; Monolith NT.115, triplicate
# [11] = biological target: SepM_G178D (Streptococcus mutans); experiment: as above
# [12] = biological target: SepM_D221N (Streptococcus mutans); experiment: as above
substance,measurement,setting,value
CSP-21 (peptide),Kd,[1],29.3 µM
same,Kd,[2],85 µM
same,Kd,[3],28.7 µM
same,Kd,[4],12.8 µM
same,Kd,[5],21.4 µM
same,Kd,[6],7.52 µM
same,Kd,[7],15.9 µM
same,Kd,[8],3.02 µM
same,Kd,[9],20.8 µM
same,Kd,[10],33.1 µM
same,Kd,[11],44.2 µM
same,Kd,[12],8.25 µM

# — article PMC11197336
